# Data: patent publication US20240150440A1 (LUMEN BIOSCIENCE, published 2024)
# Like-named read-outs stand apart in the source and are kept apart here.
# Legend:
# [1] = target: T1, recombinant SARS-CoV-2 RBD with C-terminal AviTag (SARS-CoV-2, UniProt P0DTC2 319-541)
# [2] = target: T1, recombinant SARS-CoV-2 RBD with …; remark: listed apart in the source
# [3] = target: SARS-COV-2 Wuhan Reference RBD (SARS-CoV-2, UniProt P0DTC2 319-541); assay: ELISA, RBD coated
# [4] = target: T1, recombinant SARS-CoV-2 RBD with …; assay: ELISA, competition with coated ACE2-Fc for RBD [Cont. 7]
# [5] = target: T1, recombinant SARS-CoV-2 RBD with …; assay: BLI, biotinylated RBD on streptavidin biosensors
# [6] = target: T1, recombinant SARS-CoV-2 RBD with …; assay: ELISA, competition with coated ACE2-Fc for RBD [Cont. 1]
# [7] = target: T1, recombinant SARS-CoV-2 RBD with …; remark: listed apart in the source
binder,measurement,setting,value
"MBP-5HVZ-R5D-G1-H6 (VHH, not shown: large carriers; small tags and cut ends) VHH: QVQLVESGGGLVQPGGSLRLSCAASGSIFGINDVHWFRQAPGKEREFVATITNGLSARYKDSVKGRFTISRDNAKNTVYLQMNSLKPEDTAVYYCAAQVYITTYELYDYWGQGTQVTVSS",IC50,[1],12.4 nM
"MBP-5HVZ-R5C-F3-H6 (VHH, not shown: large carriers; small tags and cut ends) VHH: QVQLVESGGGLVQPGGSLRLSCAASGTIPSINYTAWYRQAPGKQRELVASLTSGDNRYYTDSVKGRFTISRDNAKNTVYLQMNSLKPEDTAVYYCNAKTVGSSYRDSYNYWGQGTQVTVSS",IC50,[2],11.9 nM
same,Kd,[2],11.3 nM
"MBP-5HVZ-R5C-F5-H6 (VHH, not shown: large carriers; small tags and cut ends) VHH: QVQLVESGGGLVQPGGSLRLSCAASGSYFKINSLAWFRQAPGKAREVVAAIHSGDGTNYADSVKGRFTISRDNAKNTVYLQMNSLKPEDTAVYYCAADQAWVRAGTYDYWGQGTQVTVSS",IC50,[2],3.9 nM
same,Kd,[2],3.13 nM
"MBP-5HVZ-R5C-F6-H6 (VHH, not shown: large carriers; small tags and cut ends) VHH: QVQLVESGGGLVQPGGSLRLSCAASGQTNSILAMHWYRQAPGKQREAVATITSGSNSTYADSVKGRFTISRDNAKNTVYLQMNSLKPEDTAVYYCAARNGKLSPKANQRLYWGQGTQVTVSS",IC50,[2],110 nM
"MBP-5HVZ-R5C-G6-H6 (VHH, not shown: large carriers; small tags and cut ends) VHH: QVQLVESGGGLVQPGGSLRLSCAASGSIESINAIHWFRQAPGKAREEVAAITENDVDYYADSVKGRFTISRDNAKNTVYLQMNSLKPEDTAVYYCASLSSGYQYVGFRYWGQGTQVTVSS",IC50,[2],8.7 nM
"MBP-5HVZ-R5D-A1-H6 (VHH, not shown: large carriers; small tags and cut ends) VHH: QVQLVESGGGLVQPGGSLRLSCAASGSISSYNAMHWFRQAPGKQREWVAGLTSSGSDGYVDSVKGRFTISRDNAKNTVYLQMNSLKPEDTAVYYCNAFSYHTYSRYDFWGQGTQVTVSS",IC50,[2],12.6 nM
"MBP-5HVZ-R5D-B2-H6 (VHH, not shown: large carriers; small tags and cut ends) VHH: QVQLVESGGGLVQPGGSLRLSCAASGSIWSIAFMSWYRQAPGKGREWVAAITTGNDEAYADSVKGRFTISRDNAKNTVYLQMNSLKPEDTAVYYCAANTYERTPDGRTFSYWGQGTQVTVSS",Kd,[2],1.21 nM
"MBP-R5D-D4-H6 (VHH, not shown: large carriers; small tags and cut ends) VHH: QVQLVESGGGLVQPGGSLRLSCAASGSDFTINAMHWFRQAPGKQREFVATITSTSSTAYRDSVKGRFTISRDNAKNTVYLQMNSLKPEDTAVYYCAAFAVRDADTAGWTARDYWGQGTQVTVSS",Kd,[1],100 nM
"MBP-5HVZ-R5D-E4-H6 (VHH, not shown: large carriers; small tags and cut ends) VHH: QVQLVESGGGLVQPGGSLRLSCAASGQISSNNGMHWFRQAPGKRREFVATATTGGTTSYADSVKGRFTISRDNAKNTVYLQMNSLKPEDTAVYYCTALLMSRAGEFDYWGQGTQVTVSS",IC50,[1],13.7 nM
same,Kd,[1],9.34 nM
"MBP-5HVZ-R5D-F3-H6 (VHH, not shown: large carriers; small tags and cut ends) VHH: QVQLVESGGGLVQPGGSLRLSCAASGSQLSINYVHWFRQAPGKQREFVAAITITGSSYYADSVKGRFTISRDNAKNTVYLQMNSLKPEDTAVYYCNTVDRTDNYGYDYWGQGTQVTVSS",IC50,[1],29.3 nM
"MBP-5HVZ-R5D-G6-H6 (VHH, not shown: large carriers; small tags and cut ends) VHH: QVQLVESGGGLVQPGGSLRLSCAASGRILAANIVHWYRQAPGKNREGVAGITSGGSTYYADSVKGRFTISRDNAKNTVYLQMNSLKPEDTAVYYCAAKPLGSPDDFDYWGQGTQVTVSS",IC50,[1],3.2 nM
same,Kd,[1],31.3 nM
"MBP-5HVZ-R5E-G2-H6 (VHH, not shown: large carriers; small tags and cut ends) VHH: QVQLVESGGGLVQPGGSLRLSCAASGTIKSINAMHWFRQAPGKAREFVASIGSNGAKSYSDSVKGRFTISRDNAKNTVYLQMNSLKPEDTAVYYCTALITVAESDDYDYWGQGTQVTVSS",Kd,[1],3.14 nM
"PP907 MBP-5HVZ-S1b-E11-H6 (VHH, Form: Dimer) VHH: QVQLVESGGGLVQPGGSLRLSCAASGSYASIASMHWFRQAPGKEREFVAGVTSGGSTNYGDSVKGRFTISRDNAKNTVYLQMNSLKPEDTAVYYCNALAGANYESQWEEYNYWGQGTQVTVSS",EC50,[3],3 nM
same,IC50,[4],15.9 nM
"PP908 MBP-5HVZ-S2a-C4-H6 (VHH, Form: Dimer) VHH: QVQLVESGGGLVQPGGSLRLSCAASGFSESINATAWFRQAPGKQREGVAGLDGGGSDYYSDSVKGRFTISRDNAKNTVYLQMNSLKPEDTAVYYCAAQLTSSFRGYDFTPSNYDYWGQGTQVTVSS",EC50,[3],1.59 nM
same,Kd,[5],219 nM
same,IC50,[4],13.1 nM
"PP909 MBP-5HVZ-S2b-A7-H6 (VHH, Form: Dimer) VHH: QVQLVESGGGLVQPGGSLRLSCAASGSSDSWNALHWFRQAPGKEREFVAGISSAGSGYYADSVKGRFTISRDNAKNTVYLQMNSLKPEDTAVYYCNGYEHTTGYDYWGQGTQVTVSS",EC50,[3],0.62 nM
same,Kd,[5],22.5 nM
same,IC50,[4],5.9 nM
"PP910 MBP-5HVZ-S2b-C10-H6 (VHH, Form: Dimer) VHH: QVQLVESGGGLVQPGGSLRLSCAASGSAFSLNYMAWFRQAPGKQREGVAIIGSGGSSDYADSVKGRFTISRDNAKNTVYLQMNSLKPEDTAVYYCAAQPNGSPDDFDYWGQGTQVTVSS",Kd,[5],54 nM
same,IC50,[4],405 nM
"PP914 MBP-5HVZ-S3a-H1-H6 (VHH, Form: Dimer) VHH: QVQLVESGGGLVQPGGSLRLSCAASGGIYSPYSMHWFRQAPGKAREWVAGIVGGGGTTYSDSVKGRFTISRDNAKNTVYLQMNSLKPEDTAVYYCNANYQEYDEYDYWGQGTQVTVSS",EC50,[3],3.24 nM
same,IC50,[4],4.3 nM
"PP915 MBP-5HVZ-S3b-A7-H6 (VHH, Form: Dimer) VHH: QVQLVESGGGLVQPGGSLRLSCAASGSIASINAIHWVRQAPGKQREEVAAITSGGSTGYADSVKGRFTISRDNAKNTVYLQMNSLKPEDTAVYYCAAQPGQSYAVWGQGTQVTVSS",EC50,[3],1.05 nM
same,Kd,[5],2.63 nM
"PP1145 MBP-5HVZ-PAPA-R2d-A6-H6 (VHH, Form: Dimer) VHH: QVQLVESGGGLVQPGGSLRLSCAASGSGASIGAMHWFRQAPGKGREWVASITSAGNTYYGDSVKGRFTISRDNAKNTVYLQMNSLKPEDTAVYYCNALAGANYESQWEEYNYWGQGTQVTVSS",EC50,[3],1.33 nM
same,IC50,[6],3.8 nM
"PP1133 MBP-4B0F-PAPA-R2d-A6-H6 (VHH, Form: Heptamer) VHH: QVQLVESGGGLVQPGGSLRLSCAASGSGASIGAMHWFRQAPGKGREWVASITSAGNTYYGDSVKGRFTISRDNAKNTVYLQMNSLKPEDTAVYYCNALAGANYESQWEEYNYWGQGTQVTVSS",IC50,[6],11 nM
"PP1146 MBP-5HVZ-PAPA-R2d-D3-H6 (VHH, Form: Dimer) VHH: QVQLVESGGGLVQPGGSLRLSCAASGHIFSINNAAWVRQAPGKSREGVATIHSGGGTYYSDSVKGRFTISRDNAKNTVYLQMNSLKPEDTAVYYCNAEVSTGAGSRGRVSDVYWGQGTQVTVSS",IC50,[6],2.1 nM
"PP1158 MPB-scTRP-PAPA-R2d-D3-H6 (VHH, Form: Trimer) VHH: QVQLVESGGGLVQPGGSLRLSCAASGHIFSINNAAWVRQAPGKSREGVATIHSGGGTYYSDSVKGRFTISRDNAKNTVYLQMNSLKPEDTAVYYCNAEVSTGAGSRGRVSDVYWGQGTQVTVSS",IC50,[6],43.4 nM
"PP1134 MBP-4B0F-PAPA-R2d-D3-H6 (VHH, Form: Heptamer) VHH: QVQLVESGGGLVQPGGSLRLSCAASGHIFSINNAAWVRQAPGKSREGVATIHSGGGTYYSDSVKGRFTISRDNAKNTVYLQMNSLKPEDTAVYYCNAEVSTGAGSRGRVSDVYWGQGTQVTVSS",IC50,[6],27.7 nM
PP1181 R2d-D3-PP7-H6 (VHH) VHH: QVQLVESGGGLVQPGGSLRLSCAASGHIFSINNAAWVRQAPGKSREGVATIHSGGGTYYSDSVKGRFTISRDNAKNTVYLQMNSLKPEDTAVYYCNAEVSTGAGSRGRVSDVYWGQGTQVTVSS,IC50,[6],282 nM
PP1892 R2B-D5_smAKAP-C16S_S3B-C8_H6 (VHH) QVQLVESGGGLVQPGGSLRLSCAASGYADEINMVHWYRQAPGKGREFVAAIASGGSTFYADSVKGRFTISRDNAKNTVYLQMNSLKPEDTAVYYCAAIPRPSLSYAHDYAYWGQGTQVTVSSTVILEYAHRLSQDILSDALQQWASQVQLVESGGGLVQPGGSLRLSCAASGSIENIERMHWYRQAPGKQRELVAVIDSGGTTRYADSVKGRFTISRDNAKNTVYLQMNSLKPEDTAVYYCAAVWLTNAESTQEYWGQGTQVTVSSHHHHHH,Kd,[7],0.33 nM
same,koff,[7],0.000411 s⁻¹
same,kon,[7],1.23e+06 M⁻¹ s⁻¹
PP1894 S3B-C8_smAKAP-C16S_R2B-D5_H6 (VHH) QVQLVESGGGLVQPGGSLRLSCAASGSIENIERMHWYRQAPGKQRELVAVIDSGGTTRYADSVKGRFTISRDNAKNTVYLQMNSLKPEDTAVYYCAAVWLTNAESTQEYWGQGTQVTVSSTVILEYAHRLSQDILSDALQQWASQVQLVESGGGLVQPGGSLRLSCAASGYADEINMVHWYRQAPGKGREFVAAIASGGSTFYADSVKGRFTISRDNAKNTVYLQMNSLKPEDTAVYYCAAIPRPSLSYAHDYAYWGQGTQVTVSSHHHHHH,Kd,[7],0.44 nM
same,koff,[7],0.000599 s⁻¹
same,kon,[7],1.34e+06 M⁻¹ s⁻¹
PP1895 S3B-C8_smAKAP-C16S_S3B-C8_H6 (VHH) QVQLVESGGGLVQPGGSLRLSCAASGSIENIERMHWYRQAPGKQRELVAVIDSGGTTRYADSVKGRFTISRDNAKNTVYLQMNSLKPEDTAVYYCAAVWLTNAESTQEYWGQGTQVTVSSTVILEYAHRLSQDILSDALQQWASQVQLVESGGGLVQPGGSLRLSCAASGSIENIERMHWYRQAPGKQRELVAVIDSGGTTRYADSVKGRFTISRDNAKNTVYLQMNSLKPEDTAVYYCAAVWLTNAESTQEYWGQGTQVTVSSHHHHHH,Kd,[7],2.06 nM
same,koff,[7],0.00761 s⁻¹
same,kon,[7],3.69e+06 M⁻¹ s⁻¹
